Consider five variants from IntAct's records for PubMed 25764370.

The labels stand for the following.
B1: Structural maintenance of chromosomes protein 5 (Saccharomyces cerevisiae), Q08204 (parent)
chain: MTSLIDLGRYVERTHHGEDTEPRSKRVKIAKPDLSSFQPGSIIKIRLQDFVTYTLTEFNLSPSLNMIIGPNGSGKSTFVCAVCLGLAGKPEYIGRSKKVEDFIKNGQDVSKIEITLKNSPNVTDIEYIDARDETIKITRIITRSKRRSDYLINDYQVSESVVKTLVAQLNIQLDNLCQFLSQERVEEFARLKSVKLLVETIRSIDASLLDVLDELRELQGNEQSLQKDLDFKKAKIVHLRQESDKLRKSVESLRDFQNKKGEIELHSQLLPYVKVKDHKEKLNIYKEEYERAKANLRAILKDKKPFANTKKTLENQVEELTEKCSLKTDEFLKAKEKINEIFEKLNTIRDEVIKKKNQNEYYRGRTKKLQATIISTKEDFLRSQEILAQTHLPEKSVFEDIDIKRKEIINKEGEIRDLISEIDAKANAINHEMRSIQRQAESKTKSLTTTDKIGILNQDQDLKEVRDAVLMVREHPEMKDKILEPPIMTVSAINAQFAAYLAQCVDYNTSKALTVVDSDSYKLFANPILDKFKVNLRELSSADTTPPVPAETVRDLGFEGYLSDFITGDKRVMKMLCQTSKIHTIPVSRRELTPAQIKKLITPRPNGKILFKRIIHGNRLVDIKQSAYGSKQVFPTDVSIKQTNFYQGSIMSNEQKIRIENEIINLKNEYNDRKSTLDALSNQKSGYRHELSELASKNDDINREAHQLNEIRKKYTMRKSTIETLREKLDQLKREARKDVSQKIKDIDDQIQQLLLKQRHLLSKMASSMKSLKNCQKELISTQILQFEAQNMDVSMNDVIGFFNEREADLKSQYEDKKKFVKEMRDTPEFQSWMREIRSYDQDTKEKLNKVAEKYEEEGNFNLSFVQDVLDKLESEIAMVNHDESAVTILDQVTAELRELEHTVPQQSKDLETIKAKLKEDHAVLEPKLDDIVSKISARFARLFNNVGSAGAVRLEKPKDYAEWKIEIMVKFRDNAPLKKLDSHTQSGGERAVSTVLYMIALQEFTSAPFRVVDEINQGMDSRNERIVHKAMVENACAENTSQYFLITPKLLTGLHYHEKMRIHCVMAGSWIPNPSEDPKMIHFGETSNYSFD
B2: Structural maintenance of chromosomes protein 5 (Saccharomyces cerevisiae), Q08204 (parent)
chain: B1 chain
partner: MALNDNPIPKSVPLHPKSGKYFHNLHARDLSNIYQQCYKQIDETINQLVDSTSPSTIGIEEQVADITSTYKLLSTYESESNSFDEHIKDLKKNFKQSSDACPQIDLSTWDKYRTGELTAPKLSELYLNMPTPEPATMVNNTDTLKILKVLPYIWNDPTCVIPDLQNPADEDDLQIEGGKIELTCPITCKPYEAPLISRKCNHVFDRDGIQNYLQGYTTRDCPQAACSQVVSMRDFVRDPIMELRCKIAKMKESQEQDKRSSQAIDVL

The variants in one experiment derive from B1. Conditions: with smt3_yeast SMT3, Q12306.
smt3_yeast SMT3, Q12306, sequence (Q12306 whole entry): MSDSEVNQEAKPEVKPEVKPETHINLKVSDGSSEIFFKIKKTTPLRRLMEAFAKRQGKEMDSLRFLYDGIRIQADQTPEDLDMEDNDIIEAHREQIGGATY
For Q752A;L755A;L762A, the “effect of a mutation on the interaction” value was “decreasing interaction strength”.
The same measure, in the same setting: the result for I780R;I784R;F787A;N791A reads “disrupting interaction strength”.
Turning to M769A;K773A, the “effect of a mutation on the interaction” value is recorded as “decreasing interaction strength”.

Variants of B2 are the subject of another experiment. Conditions: with nse2_yeast MMS21, P38632.
With Q752A;L755A;L762A, the “effect of a mutation on the interaction” value is recorded as “decreasing interaction strength”.
On the same count and under the same terms, the result for I780R;I784R;F787A;N791A reads “disrupting interaction strength”.
